{"source": "patent US20240226163A1", "about": "(Regeneron, published 2024)", "key": {"[1]": {"target": "T1, HLA-A*02:01 presenting MAGE-A4 286-294 peptide (…) (human)", "T1 construct": "On peptide-pulsed T2 cells", "assay": "flow cytometry, peptide-pulsed T2 cells;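 as to S/N ratio: ratio of peak mean fluorescence intensity across a 12-point threefold antibody dilution series to the MFI with secondary antibody only, live-gated cells by flow cytometry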", "procedure": "(§1) Samples were run on an Intellicyt iQue flow cytometer (Intellicyt) and results were analyzed using Forecyte analysis software (Intellicyte) to calculate the mean fluorescent intensity (MFI) after gating for live cells. MFI values were plotted in Graphpad Prism using a four-parameter logistic equation over a 12-point response curve to calculate EC₅₀ values. The secondary antibody alone (i.e. no primary antibody) for each dose-response curve is also included in the analysis as a continuation of the three-fold serial dilution and is represented as the lowest dose. The signal to noise (S/N) was determined by taking the ratio of the highest MFI on the dose response curve to the MFI in the secondary alone wells."}, "[2]": {"target": "T2, HLA-A*02:01 presenting FN1 2182-2190 peptide (…) (human)", "T2 construct": "On peptide-pulsed T2 cells; also called T2 Pulsed FN1 2182-2190", "assay": "flow cytometry, peptide-pulsed T2 cells", "procedure": "as §1"}, "[3]": {"target": "T3, HLA-A*02:01 presenting SMIM11A 4-12 peptide (…) (human)", "T3 construct": "On peptide-pulsed T2 cells; also called T2 Pulsed SMIM11A 4-12", "assay": "flow cytometry, peptide-pulsed T2 cells", "procedure": "as §1"}, "[4]": {"target": "T4, HLA-A*02:01 presenting SHTN1 198-206 peptide (…) (human)", "T4 construct": "On peptide-pulsed T2 cells; also called T2 Pulsed SHTN1 198-206", "assay": "flow cytometry, peptide-pulsed T2 cells", "procedure": "as §1"}, "[5]": {"target": "T5, HLA-A*02:01 presenting NBAS 2063-2071 peptide (…) (human)", "T5 construct": "On peptide-pulsed T2 cells; also called T2 Pulsed NBAS 2063-2071", "assay": "flow cytometry, peptide-pulsed T2 cells", "procedure": "as §1"}, "[6]": {"target": "T6, HLA-A*02:01 presenting PSME2 145-153 peptide (…) (human)", "T6 construct": "On peptide-pulsed T2 cells; also called T2 Pulsed PSME2 145-153", "assay": "flow cytometry, peptide-pulsed T2 cells", "procedure": "as §1"}, "[7]": {"target": "T7, HLA-A*02:01 presenting AOX1 795-803 peptide (…) (human)", "T7 construct": "On peptide-pulsed T2 cells; also called T2 Pulsed AOX1 795-803", "assay": "flow cytometry, peptide-pulsed T2 cells", "procedure": "as §1"}, "[8]": {"target": "T8, HLA-A*02:01 presenting PCDHGC3 337-345 peptide (…) (human)", "T8 construct": "On peptide-pulsed T2 cells; also called T2 Pulsed PCDHGC3 337-345", "assay": "flow cytometry, peptide-pulsed T2 cells", "procedure": "as §1"}, "[9]": {"target": "T9, HLA-A*02:01 presenting CNOT1 1965-1973 peptide (…) (human)", "T9 construct": "On peptide-pulsed T2 cells; also called T2 Pulsed CNOT1 1965-1973", "assay": "flow cytometry, peptide-pulsed T2 cells", "procedure": "as §1"}, "[10]": {"target": "T10, HLA-A*02:01 presenting PLEKHH2 790-798 peptide (…) (human)", "T10 construct": "On peptide-pulsed T2 cells; also called T2 Pulsed PLEKHH2 790-798", "assay": "flow cytometry, peptide-pulsed T2 cells", "procedure": "as §1"}, "[11]": {"target": "T11, HLA-A*02:01 presenting RABGAP1L 408-416 peptide (…) (human)", "T11 construct": "On peptide-pulsed T2 cells; also called T2 Pulsed RABGAP1L 408-416", "assay": "flow cytometry, peptide-pulsed T2 cells", "procedure": "as §1"}, "[12]": {"target": "T12, HLA-A*02:01 presenting MRPL37 334-342 peptide (…) (human)", "T12 construct": "On peptide-pulsed T2 cells; also called T2 Pulsed MRPL37 334-342", "assay": "flow cytometry, peptide-pulsed T2 cells", "procedure": "as §1"}, "[13]": {"target": "T13, HLA-A*02:01 presenting HEATR5A 1925-1933 peptide (…) (human)", "T13 construct": "On peptide-pulsed T2 cells", "assay": "flow cytometry, peptide-pulsed T2 cells", "procedure": "as §1"}, "[14]": {"target": "T14, HLA-A*02:01 presenting CARD8 170-178 peptide (…) (human)", "T14 construct": "On peptide-pulsed T2 cells; also called T2 Pulsed CARD8 170-178", "assay": "flow cytometry, peptide-pulsed T2 cells", "procedure": "as §1"}, "[15]": {"target": "T15, HLA-A*02:01 presenting TEP1 2156-2164 peptide (…) (human)", "T15 construct": "On peptide-pulsed T2 cells; also called T2 Pulsed TEP1 2156-2164", "assay": "flow cytometry, peptide-pulsed T2 cells", "procedure": "as §1"}, "[16]": {"target": "T1, HLA-A*02:01 presenting MAGE-A4 286-294 …", "assay": "cell-based or functional assay"}, "[17]": {"target": "T2, HLA-A*02:01 presenting FN1 2182-2190 …", "assay": "flow cytometry, peptide-pulsed T2 cells", "remark": "listed apart in the source"}, "[18]": {"target": "T3, HLA-A*02:01 presenting SMIM11A 4-12 …", "assay": "flow cytometry, peptide-pulsed T2 cells", "remark": "listed apart in the source"}, "[19]": {"target": "T5, HLA-A*02:01 presenting NBAS 2063-2071 …", "assay": "flow cytometry, peptide-pulsed T2 cells", "remark": "listed apart in the source"}, "[20]": {"target": "T6, HLA-A*02:01 presenting PSME2 145-153 …", "assay": "flow cytometry, peptide-pulsed T2 cells", "remark": "listed apart in the source"}, "[21]": {"target": "T8, HLA-A*02:01 presenting PCDHGC3 337-345 …", "assay": "flow cytometry, peptide-pulsed T2 cells", "remark": "listed apart in the source"}, "[22]": {"target": "T9, HLA-A*02:01 presenting CNOT1 1965-1973 …", "assay": "flow cytometry, peptide-pulsed T2 cells", "remark": "listed apart in the source"}, "[23]": {"target": "T10, HLA-A*02:01 presenting PLEKHH2 790-798 …", "assay": "flow cytometry, peptide-pulsed T2 cells", "remark": "listed apart in the source"}, "[24]": {"target": "T11, HLA-A*02:01 presenting RABGAP1L 408-416 …", "assay": "flow cytometry, peptide-pulsed T2 cells", "remark": "listed apart in the source"}, "[25]": {"target": "T12, HLA-A*02:01 presenting MRPL37 334-342 …", "assay": "flow cytometry, peptide-pulsed T2 cells", "remark": "listed apart in the source"}, "[26]": {"target": "T13, HLA-A*02:01 presenting HEATR5A …", "assay": "flow cytometry, peptide-pulsed T2 cells", "remark": "listed apart in the source"}, "[27]": {"target": "T14, HLA-A*02:01 presenting CARD8 170-178 …", "assay": "flow cytometry, peptide-pulsed T2 cells", "remark": "listed apart in the source"}, "[28]": {"target": "T15, HLA-A*02:01 presenting TEP1 2156-2164 …", "assay": "flow cytometry, peptide-pulsed T2 cells", "remark": "listed apart in the source"}, "[29]": {"target": "T2, HLA-A*02:01 presenting FN1 2182-2190 …", "assay": "cell-based or functional assay"}, "[30]": {"target": "T4, HLA-A*02:01 presenting SHTN1 198-206 …", "assay": "cell-based or functional assay"}, "[31]": {"target": "T13, HLA-A*02:01 presenting HEATR5A …", "assay": "cell-based or functional assay"}, "[32]": {"target": "T1, HLA-A*02:01 presenting MAGE-A4 286-294 …", "assay": "cell-based or functional assay", "remark": "listed apart in the source"}}}
{"binder": "bsAb6043 (bispecific antibody, V domains shown, Only variable regions are tied to the bispecific; also called MAGE-A4×CD3 (7221G) bispecific antibody) VH 1: QVQLVESGGGLVKPGGSLRLSCAASGFTFSEYYLTWIRQAPGKGLDWIAYISSSGYNIYYADSVKDRFTISRDNGKNSLFLQMNNLRAEDTAVYFCAREGVTDGMDVWGQGTTVTVSS VH 2: EVQLVESGGGLVQPGRSLRLSCAASGFTFDDYSMHWVRQAPGKGLEWVSGISWNSGSKGYADSVKGRFTISRDNAKNSLYLQMNSLRAEDTALYYCAKYGSGYGKFYHYGLDVWGQGTTVTVSS VL: DIQMTQSPSSLSASVGDRVTITCRASQSIDTFLNWYQQKPGKVPKLLIYAASNLESGVPSRFSGSGSGTVFTLTISRLQPEDFATYYCQQSYSIPPITFGQGTRVEIK", "values": [{"measurement": "S/N ratio", "setting": "[1]", "value": 244}, {"measurement": "S/N ratio", "setting": "[2]", "value": 1}, {"measurement": "S/N ratio", "setting": "[3]", "value": 1}, {"measurement": "S/N ratio", "setting": "[4]", "value": 5}, {"measurement": "S/N ratio", "setting": "[5]", "value": 1}, {"measurement": "S/N ratio", "setting": "[6]", "value": 1}, {"measurement": "S/N ratio", "setting": "[7]", "value": 110}, {"measurement": "S/N ratio", "setting": "[8]", "value": 1}, {"measurement": "S/N ratio", "setting": "[9]", "value": 1}, {"measurement": "S/N ratio", "setting": "[10]", "value": 1}, {"measurement": "S/N ratio", "setting": "[11]", "value": 1}, {"measurement": "S/N ratio", "setting": "[12]", "value": 1}, {"measurement": "S/N ratio", "setting": "[13]", "value": 1}, {"measurement": "S/N ratio", "setting": "[14]", "value": 1}, {"measurement": "S/N ratio", "setting": "[15]", "value": 1}, {"measurement": "Fold Activation, NF-κB luciferase, Jurkat + IM-9, with 2 nM mAb5705 (anti-CD28)", "setting": "[16]", "value": 1.1, "unit": "fold"}, {"measurement": "Fold Activation, NF-κB luciferase, Jurkat + U266, with 2 nM mAb5705 (anti-CD28)", "setting": "[16]", "value": 0.9, "unit": "fold"}, {"measurement": "binding result", "setting": "[17]", "value": "no binding"}, {"measurement": "binding result", "setting": "[18]", "value": "no binding"}, {"measurement": "binding result", "setting": "[19]", "value": "no binding"}, {"measurement": "binding result", "setting": "[20]", "value": "no binding"}, {"measurement": "binding result", "setting": "[21]", "value": "no binding"}, {"measurement": "binding result", "setting": "[22]", "value": "no binding"}, {"measurement": "binding result", "setting": "[23]", "value": "no binding"}, {"measurement": "binding result", "setting": "[24]", "value": "no binding"}, {"measurement": "binding result", "setting": "[25]", "value": "no binding"}, {"measurement": "binding result", "setting": "[26]", "value": "no binding"}, {"measurement": "binding result", "setting": "[27]", "value": "no binding"}, {"measurement": "binding result", "setting": "[28]", "value": "no binding"}, {"measurement": "EC50 (M), Jurkat/NF-κB-Luc reporter with pulsed T2 cells", "setting": "[29]", "value": "> 2e-08", "unit": "M"}, {"measurement": "Fold change, Jurkat/NF-κB-Luc reporter with pulsed T2 cells", "setting": "[29]", "value": 1, "unit": "fold"}, {"measurement": "EC50 (M), Jurkat/NF-κB-Luc reporter with pulsed T2 cells", "setting": "[30]", "value": "3.5e-09", "unit": "M"}, {"measurement": "Fold change, Jurkat/NF-κB-Luc reporter with pulsed T2 cells", "setting": "[30]", "value": 75.3, "unit": "fold"}, {"measurement": "EC50 (M), Jurkat/NF-κB-Luc reporter with pulsed T2 cells", "setting": "[31]", "value": "> 2e-08", "unit": "M"}, {"measurement": "Fold change, Jurkat/NF-κB-Luc reporter with pulsed T2 cells", "setting": "[31]", "value": 2.1, "unit": "fold"}, {"measurement": "Fold Activation, NF-κB luciferase, Jurkat/NF-κB Luc + IM-9", "setting": "[32]", "value": 1.8, "unit": "fold"}, {"measurement": "Fold Activation, NF-κB luciferase, Jurkat/NF-κB Luc + U266", "setting": "[32]", "value": 0.9, "unit": "fold"}]}
